Assay results taken from paper PMC3032679 (Journal of Translational Medicine, 2011).
Each block holds one binder with its values, some of them ahead of it. Ends that are not written are not given here.

Tests used:
human recombinant Hsp90α [1] = molecular target: T1, human recombinant Hsp90α (human, UniProt P07900 1-732); assay: SPR; competition; Hsp90 or Hsp70 (1 μM) preincubated with TPR peptide (14, 140 or 700 μM) passed over Hop, FKBP5 or PP5 immobilised on CM5 chip; signal without peptide = 100% binding; 25°C, HBS-EP buffer pH 7.4; settings: both partners purified
T1 construct: Heat shock protein 90 alpha (Hsp90α), human, recombinant; also called heat shock protein 90; source: bought: Stressgen Bioreagents

human recombinant Hsp90α [2] = molecular target: T1, human recombinant Hsp90α; assay: SPR; Biacore 3000; biotin-TPR peptide immobilised on streptavidin (SA) chip; Hsp90 or Hsp70 (0.3, 1 or 2 μM) as analyte, 30 μl/min, 25°C, HBS-EP buffer pH 7.4; settings: both partners purified

- binding result (human recombinant Hsp90α [1]): binds
B1: human recombinant PP5 (natural protein, UniProt P53041 1-499, looked up)
chain: MAMAEGERTECAEPPRDEPPADGALKRAEELKTQANDYFKAKDYENAIKFYSQAIELNPSNAIYYGNRSLAYLRTECYGYALGDATRAIELDKKYIKGYYRRAASNMALGKFRAALRDYETVVKVKPHDKDAKMKYQECNKIVKQKAFERAIAGDEHKRSVVDSLDIESMTIEDEYSGPKLEDGKVTISFMKELMQWYKDQKKLHRKCAYQILVQVKEVLSKLSTLVETTLKETEKITVCGDTHGQFYDLLNIFELNGLPSETNPYIFNGDFVDRGSFSVEVILTLFGFKLLYPDHFHLLRGNHETDNMNQIYGFEGEVKAKYTAQMYELFSEVFEWLPLAQCINGKVLIMHGGLFSEDGVTLDDIRKIERNRQPPDSGPMCDLLWSDPQPQNGRSISKRGVSCQFGPDVTKAFLEENNLDYIIRSHEVKAEGYEVAHGGRCVTVFSAPNYCDQMGNKASYIHLQGSDLRPQFHQFTAVPHPNVKPMAYANTLLQLGMM
notes: PP5 (protein phosphatase 5), human, recombinant; Abnova recombinant proteins often carry a GST tag (surmise); source: bought: Abnova

- binding result (human recombinant Hsp90α [1]): binds
B2: TPR peptide (KAYARIGNSYFK) (peptide)
peptide: KAYARIGNSYFK
notes: also called designed TPR peptide; source: synthetic peptide

- Kd (human recombinant Hsp90α [2]): 1420 nM
B3: Biotin-conjugated TPR peptide (peptide)
peptide: KAYARIGNSYFK
modifications: also: biotin-conjugated, position not given here
notes: Immobilised on a streptavidin sensor chip by its biotin; also called biotin-TPR; immobilized TPR peptide; source: synthetic peptide
